Paper PMC12263440
Values joined by “and” are separate entries in the source; they are usually repeats but may differ in a detail not shown here. Equal entries are not always repeated.

Target: nucleosome containing the 193-bp Widom 601 DNA (24-bp linker DNAs at both ends) (human) (UniProt P04908)
Assay: mass photometry; 193-bp 601 nucleosome (1 µM) and DEK (2 µM) in 18 mM Tris-HCl pH 7.5, 60 mM NaCl, overnight at room temperature; diluted 1:40 for recording

stoichiometry N (DEK molecules per nucleosome): 1 and 2
Substance: recombinant human DEK protein (wild type) (from UniProt P35659 1-375) (natural protein)
